According to paper PMC7735759, “Structural basis of TRPC4 regulation by calmodulin and pharmacological agents” (eLife, 2020):
One block for each compound: values may come before it.

Tests used:
[1] = molecular target: Zebrafish TRPC4 (Danio rerio TRPC4, residues 2-915) (Danio rerio (zebrafish)); experiment: cryo-EM structure; TRPC4 alone: apo in LMNG, and in amphipols with 100 µM GFB-8438, GFB-9289 or GFB-8749; C4 symmetry
[2] = molecular target: Zebrafish TRPC4 (Danio rerio TRPC4, residues 2-915) (Danio rerio (zebrafish)); experiment: cryo-EM structure; TRPC4-CaM complex in LMNG, 10 mM calcium chloride, 10 µM CaM added; 3D sorting without symmetry for the stoichiometries
[3] = molecular target: T1, TRPC4 (Danio rerio, UniProt U3N7D8); experiment: cryo-EM structure at […] Å; also dose-dependent inhibition of (-)-Englerin A currents in TRPC4-expressing oocytes; assay type: binding
T1 construct: gene trpc4b; residues 2–915
T1 sequence (U3N7D8 2-915): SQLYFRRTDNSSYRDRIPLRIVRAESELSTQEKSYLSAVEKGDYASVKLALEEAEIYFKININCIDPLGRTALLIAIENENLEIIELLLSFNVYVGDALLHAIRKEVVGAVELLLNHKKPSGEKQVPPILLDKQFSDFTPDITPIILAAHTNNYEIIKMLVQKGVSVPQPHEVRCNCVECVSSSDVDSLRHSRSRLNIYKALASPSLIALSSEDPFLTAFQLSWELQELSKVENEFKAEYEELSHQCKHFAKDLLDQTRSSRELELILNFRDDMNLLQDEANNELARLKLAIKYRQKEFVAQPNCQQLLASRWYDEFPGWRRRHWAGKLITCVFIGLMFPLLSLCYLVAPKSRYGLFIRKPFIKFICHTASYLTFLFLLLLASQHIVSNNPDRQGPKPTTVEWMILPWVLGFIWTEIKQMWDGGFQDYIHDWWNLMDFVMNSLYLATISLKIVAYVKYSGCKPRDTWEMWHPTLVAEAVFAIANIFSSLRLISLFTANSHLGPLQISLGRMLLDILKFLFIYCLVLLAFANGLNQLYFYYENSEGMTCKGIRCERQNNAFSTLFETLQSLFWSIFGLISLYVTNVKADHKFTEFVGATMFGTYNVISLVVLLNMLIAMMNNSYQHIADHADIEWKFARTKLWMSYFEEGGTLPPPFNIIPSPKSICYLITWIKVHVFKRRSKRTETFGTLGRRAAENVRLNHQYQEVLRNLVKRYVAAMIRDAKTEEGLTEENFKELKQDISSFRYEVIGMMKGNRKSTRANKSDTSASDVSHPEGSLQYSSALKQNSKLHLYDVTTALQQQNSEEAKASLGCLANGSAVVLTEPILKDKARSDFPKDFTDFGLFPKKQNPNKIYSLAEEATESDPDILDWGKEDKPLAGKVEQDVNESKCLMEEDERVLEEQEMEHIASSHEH

[4] = molecular target: T1, TRPC4; experiment: as above; assay type: binding; remark: listed apart in the source
[5] = molecular target: T1, TRPC4; experiment: as above; assay type: binding; remark: listed apart in the source

stoichiometry N [1]: 4
stoichiometry N [2]: 4
Compound: Zebrafish TRPC4 (Danio rerio TRPC4, residues 2-915) (natural protein)

Compound: O=C1CN(c2cn[nH]c(=O)c2Cl)CCN1CC1CCC(F)(F)CC1 [GFB-8749]
cryo-EM structure at 3.8 Å; also dose-dependent inhibition of (-)-Englerin A cur [3]: an extra density was observed inside the VSL domain region of GFB-8749-bound TRPC4

Compound: O=C1CN(c2cn[nH]c(=O)c2Cl)CCN1C1CCCCC1 [GFB-9289, 4-chloro-5-(4-cyclohexyl-3-oxopiperazin-1-yl)-2,3-dihydropyridazin-3-one]
cryo-EM structure at 3.2 Å; also dose-dependent inhibition of (-)-Englerin A cur [4]: we found an extra density inside the VSL domain region of GFB-9289-bound TRPC4

Compound: O=C1CN(c2cn[nH]c(=O)c2Cl)CCN1Cc1ccccc1C(F)(F)F [GFB-8438]
cryo-EM structure at 3.6 Å; also dose-dependent inhibition of (-)-Englerin A cur [5]: The shape of the density clearly indicated that it corresponds to the bound inhibitor.

percent of TRPC4 channels with four CaM bound (fully saturated) [2]: 20%
percent of TRPC4 channels with one CaM bound [2]: 13%
percent of TRPC4 channels with three CaM bound [2]: 31%
percent of TRPC4 channels with two CaM bound [2]: 35%
stoichiometry N (CaM per TRPC4 tetramer) [2]: < 4
Compound: Mouse calmodulin (CaM) (from UniProt P0DP26 1-149) (natural protein)
